Results published in patent publication US20230270636A1, “GOLD AND PALMITOYL PENTAPEPTIDE-4 NANOPARTICLES” (INFINITEC ACTIVOS, S.L., priority 2018, published 2023).
Where a SMILES comes first, the peptide text is derived from it. Where no end group is shown, it is not given here. The star is where a group is joined. Palmitoyl = CCCCCCCCCCCCCCCC(=O)*

Legend:
[1] = Nanoparticle size by dynamic light scattering (DLS); type: physicochemical; settings: 1 mg/mL in water, 25° C.
Description: The size of the nanoparticles can be determined by means of conventional methods in the art, particularly by means of dynamic light scattering (DLS). First the samples are prepared to determine particle size. To that end, 1 mg is weighed if it is powder and it is suspended in 1 mL of milli-Q H2O. In the case of liquid samples, a 100 μL aliquot of the sample to which 900 μL of milli-Q H2O are added is collected with an automatic pipette. Then the particle size measurement is taken using quartz cuvettes and Zetasizer Nano ZS series equipment (Malvern Instruments) of the Instituto de Quimica Avanzada de Cataluña (Advanced Chemistry Institute of Catalonia), CSIC.
The size of the nanoparticles (GNP, GNP-P1, and GNP-P2) was determined by dynamic light scattering (DLS) for which quartz cuvettes and Zetasizer Nano ZS series equipment (Malvern Instruments, Instituto de Quimica Avanzada de Cataluña) were used. The preparation of the samples consists of 1 mg if it is powder and it is suspended in 1 mL of milli-Q H2O. In the case of liquid samples, a 100 μL aliquot of the sample to which 900 μL of milli-Q H2O are added is collected with an automatic pipette such that there is always a concentration of 1 mg/mL of sample. Then the particle size measurement is taken at a temperature of 25° C.

[2] = Zeta potential of nanoparticles (Zetasizer Nano ZS); type: physicochemical; settings: 1 mg/mL in water, 25° C.
Description: The preparation of the samples for determining the Z potential consists of weighing 1 mg if it is powder and it is suspended in 1 mL of milli-Q H2O. Whereas in the case of liquid samples, a 100 μL aliquot of the sample to which 900 μL of milli-Q H2O are added is collected with an automatic pipette. Then the Z potential measurement is taken using DTS1070 plastic cuvettes and Zetasizer Nano ZS series equipment (Malvern Instruments) of the Instituto de Quimica Avanzada de Cataluña (Advanced Chemistry Institute of Catalonia), CSIC.
The Z potential of the nanoparticles synthesized was determined using DTS1070 plastic cuvettes and Zetasizer Nano ZS series equipment (Malvern Instruments, of the Instituto de Quimica Avanzada de Cataluña, CSIC). The preparation of the samples consists of 1 mg if it is powder and it is suspended in 1 mL of milli-Q H2O. In the case of liquid samples, a 100 μL aliquot of the sample to which 900 μL of milli-Q H2O are added is collected with an automatic pipette such that there is always a concentration of 1 mg/mL of sample. Then the Z potential measurement is taken at a temperature of 25° C.

[3] = Concentration of peptide incorporated in nanoparticles by HPLC; type: physicochemical; settings: UV 220 nm
Description: The concentration of the peptide (P1 or P2) incorporated in the nanoparticles (GNP-P1 and/or GNP-P2) was determined by HPLC, using a Waters 996 photodiode array detector instrument equipped with a Waters 2695 separation module and Millenium software. An Xbridge BEH130 C18 4.6×100 mm 3.5 μm reverse phase HPLC column by Waters was used. UV detection was performed at 220 nm, and a mobile phase B gradient of 5 to 100% was performed for 8 minutes at a flow rate of 1.0 ml/min. Under these conditions, the retention time being 6.4 min for both peptides P1 and P2. Mobile phase A: 0.045% of TFA/H2O, mobile phase B: 0.036% of TFA/ACN.

[4] = Cutaneous penetration using Franz diffusion cells; type: in vitro ADME; settings: pig skin, 20 h incubation; for Cutaneous penetration (skin layers reached): 32° C., receptor solution analysed; for Change in cutaneous penetration upon conjugating the peptide with gold nanoparticles: FIG. 1
Description: Cutaneous penetration was determined using Franz cells. The pig skin samples used in the experiments were cut into circles 3 cm in diameter. The pig skin was mounted on the receptor compartment of a Franz diffusion cell system with the stratum corneum facing up towards the donor compartment. 18 ml of phosphate-buffered saline (PBS) were used as receptor solution. An aliquot of the test samples (nanoparticles of Example 1 (GNP-P1), nanoparticles of Example 2 (GNP-P2), nanoparticles of Example 3 (GNP), formulation of peptide P1 of Example 4, formulation of peptide P2 of Example 5, mixture of nanoparticles and peptide P1 (GNP+P1) of Example 6 was applied on the pig skin. The Franz diffusion cells were mounted on an H+P Labortechnik Varimag Telesystem (Munich, Germany) and placed in a thermostatic bath (Haake).
Untreated skin control was also included. The Franz diffusion cells were kept at 32° C., and after 20 h of incubation, the receptor solution was analyzed by means of UV-visible absorption spectroscopy using a Shimadzu spectrophotometer UV-1800 (Parc Cientific of Barcelona) and quartz cuvettes (Hellma Analytics) to quantify the amount of gold nanoparticles present (GNP, GNP-P1, and GNP-P2). The amount of free peptide (P1, P2) was determined by means of HPLC, using a Waters 996 photodiode array detector instrument equipped with a Waters 2695 separation module and Millenium software. An Xbridge BEH130 C18 4.6×100 mm 3.5 μm reverse phase HPLC column by Waters was used. In both cases, UV detection was performed at 220 nm. Peptide P1 was analyzed with a mobile phase B gradient of 5 to 100% for 8 minutes at a flow rate of 1.0 ml/min, the retention time being 6.5 minutes. Peptide P2 was analyzed with a mobile phase B gradient of 0 to 20% for 8 minutes at a flow rate of 1.0 ml/min, the retention time being 1.5 minutes. The eluents used in both cases were: Mobile phase A: 0.045% of TFA/H2O, mobile phase B: 0.036% of TFA/ACN.

Compound | Nanoparticle diameter [1] | Nanoparticle Zeta potential [2] | Maximum concentration of peptide in nanoparticles [3] | Cutaneous penetration (skin layers reached) [4] | Change in cutaneous penetration upon conjugating the peptide with gold nanoparticles [4]
GNP − P1: gold nanoparticles conjugated with the peptide of formula (I) wherein R is a palmitoyl moiety (Palm-SEQ ID NO: 1) (Palmitoyl-KTTKS; also: conjugated to gold nanoparticles) | 150-200 nm | −35 mV | 0.3 mg/mL | penetration reached more internal layers such as the epidermis and dermis | considerable increase in penetration
GNP − P2: gold nanoparticles conjugated with the peptide of formula (II) (P2; Palm-SEQ ID NO: 2) (Palmitoyl-CKTTKSCTTKS; cysteine pairing not given here; also: conjugated to gold nanoparticles) | 150-200 nm | −59 mV | 0.3 mg/mL |  | 
Palm-L-Cys-L-Lys-L-Thr-L-Thr-L-Lys-L-Ser-L-Cys-L-Thr-L-Thr-L-Lys-L-Ser-OH [Example P2] |  |  |  |  | increase in penetration is not observed
CCCCCCCCCCCCCCCC(=O)N[C@@H](CCCCN)C(=O)N[C@H](C(=O)N[C@H](C(=O)N[C@@H](CCCCN)C(=O)N[C@@H](CO)C(=O)O)[C@@H](C)O)[C@@H](C)O [Example P1, Palm-L-Lys-L-Thr-L-Thr-L-Lys-L-Ser-OH] (Palmitoyl-KTTKS-OH) |  |  |  | only penetrated the outermost layers external of the skin | 
